Assay results published in US20250376519A1 (JIANGSU HENGRUI PHARMACEUTICALS, published 2025).

T1: human DLL3 (ACRO, DLL3-H52H4) (human, UniProt Q9NYJ7 27-492)
T1 construct: Bought
T1 sequence: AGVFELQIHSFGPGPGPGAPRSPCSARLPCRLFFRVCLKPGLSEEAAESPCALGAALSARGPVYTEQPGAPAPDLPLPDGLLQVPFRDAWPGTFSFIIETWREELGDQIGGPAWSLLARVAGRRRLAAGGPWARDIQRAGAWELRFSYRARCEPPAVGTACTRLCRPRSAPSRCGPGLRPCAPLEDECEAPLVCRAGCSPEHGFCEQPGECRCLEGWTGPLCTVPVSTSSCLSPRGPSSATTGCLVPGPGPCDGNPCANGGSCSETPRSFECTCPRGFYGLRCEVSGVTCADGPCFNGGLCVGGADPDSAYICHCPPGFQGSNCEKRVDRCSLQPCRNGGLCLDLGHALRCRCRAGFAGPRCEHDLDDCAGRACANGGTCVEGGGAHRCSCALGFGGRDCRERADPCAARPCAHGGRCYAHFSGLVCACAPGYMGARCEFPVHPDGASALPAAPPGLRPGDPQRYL

T2: cynomolgus monkey DLL3 (KACTUS, DLL-RM103) (cynomolgus monkey, UniProt Q9NYJ7 27-492 (human entry), limits assumed)
T2 construct: Bought
T2 chain: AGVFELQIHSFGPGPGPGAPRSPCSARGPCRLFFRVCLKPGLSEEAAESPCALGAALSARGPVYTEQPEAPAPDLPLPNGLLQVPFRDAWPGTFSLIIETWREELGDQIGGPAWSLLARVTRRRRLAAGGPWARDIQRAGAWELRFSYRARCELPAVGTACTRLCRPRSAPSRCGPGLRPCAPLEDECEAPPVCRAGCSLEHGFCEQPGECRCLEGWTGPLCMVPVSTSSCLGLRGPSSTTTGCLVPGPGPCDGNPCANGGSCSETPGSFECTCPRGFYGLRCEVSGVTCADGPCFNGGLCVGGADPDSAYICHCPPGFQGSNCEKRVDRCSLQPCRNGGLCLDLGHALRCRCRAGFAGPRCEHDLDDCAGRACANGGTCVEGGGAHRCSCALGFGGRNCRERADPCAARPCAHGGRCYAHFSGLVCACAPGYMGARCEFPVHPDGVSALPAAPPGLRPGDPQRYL

T3: DLL1 (ACRO, DL1-H52H8) (human, UniProt O00548 18-540)
T3 construct: Bought; also called human DLL1
T3 sequence: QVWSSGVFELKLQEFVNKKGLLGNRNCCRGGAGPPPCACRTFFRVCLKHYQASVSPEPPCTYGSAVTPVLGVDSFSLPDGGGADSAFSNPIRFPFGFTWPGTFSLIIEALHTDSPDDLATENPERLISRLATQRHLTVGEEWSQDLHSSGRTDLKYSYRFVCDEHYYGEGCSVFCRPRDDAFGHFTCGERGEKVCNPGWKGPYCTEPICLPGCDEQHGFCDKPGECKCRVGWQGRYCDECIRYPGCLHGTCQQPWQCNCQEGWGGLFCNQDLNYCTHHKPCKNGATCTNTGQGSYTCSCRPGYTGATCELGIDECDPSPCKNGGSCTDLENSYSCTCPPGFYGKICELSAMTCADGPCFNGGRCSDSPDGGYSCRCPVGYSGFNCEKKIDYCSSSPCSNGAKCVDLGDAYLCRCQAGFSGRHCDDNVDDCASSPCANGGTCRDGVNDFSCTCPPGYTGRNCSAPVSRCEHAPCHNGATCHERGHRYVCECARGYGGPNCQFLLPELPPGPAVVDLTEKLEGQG


Experiments:
[1] = target: T1, human DLL3 (ACRO, DLL3-H52H4); experiment: SPR Biacore 8K, Ab captured on Protein A
How it was run: (§1)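 Antibodies captured on a Protein A chip for 18 s; DLL3 or CD3D&3E antigen flowed 180 s, then 600 s dissociation, with real-time detection. Regeneration used 10 mM glycine-HCl pH 1.5 between cycles. Kinetics were obtained by 1:1 model fitting.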

[2] = target: T2, cynomolgus monkey DLL3 (KACTUS, …); experiment: SPR Biacore 8K, Ab captured on Protein A
How it was run: as §1

DLL1 (ACRO, DL1-H52H8) = target: T3, DLL1 (ACRO, DL1-H52H8); experiment: ELISA, DLL1 coated at 1 µg/mL, detection with anti-human IgG (H+L)-HRP, OD450
Description: DLL1 (ACRO, DL1-H52H8, 1 μg/mL) and DLL4 (ACRO, DL4-H5227, 1 μg/mL) were plated at 100 μL/well, and the plates were incubated overnight at 4° C. The plates were washed 3 times with 250 μL of PBST solution (PBS containing 0.1% Tween 20) per well. The plates were blocked with 250 μL of 5% milk per well at 37° C. for 2 h. The plates were washed 3 times with 250 μL of PBST solution per well. Test antibodies (maximum concentration 100 nM, serially diluted 4-fold) were added, and the plates were incubated at 37° C. for 1 h. The plates were washed 6 times with 250 μL of PBST solution per well. […] The plates were washed 6 times with 250 μL of PBST solution per well. TMB (KPL, 5120-0077) substrate solution was added at 100 μL/well, and color development was performed at room temperature for 5-10 min. 1 M H₂SO₄ was added at 100 μL/well to stop the color development, and microplate reader (Molecular Devices, VERSA max) readings at 450 nm were taken.

CD3 on Jurkat cells = target: T4, CD3 on Jurkat cells (human); experiment: flow cytometry, Jurkat cells
T4 construct: whole, on cells; also called CD3-expressing Jurkat cells
T4 sequence (P07766 23-207, chain 1 of 4): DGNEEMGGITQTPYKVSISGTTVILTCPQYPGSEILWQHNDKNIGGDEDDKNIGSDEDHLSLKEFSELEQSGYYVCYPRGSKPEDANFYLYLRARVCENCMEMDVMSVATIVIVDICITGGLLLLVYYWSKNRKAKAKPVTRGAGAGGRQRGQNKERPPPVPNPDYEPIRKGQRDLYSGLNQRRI
T4 sequence (P09693 23-182, chain 2 of 4, further chain): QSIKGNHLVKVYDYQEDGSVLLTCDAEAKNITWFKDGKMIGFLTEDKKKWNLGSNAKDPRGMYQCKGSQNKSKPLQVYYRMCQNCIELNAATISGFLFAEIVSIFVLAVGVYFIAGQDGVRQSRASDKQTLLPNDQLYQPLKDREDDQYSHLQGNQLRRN
T4 sequence (P04234 22-171, chain 3 of 4, further chain): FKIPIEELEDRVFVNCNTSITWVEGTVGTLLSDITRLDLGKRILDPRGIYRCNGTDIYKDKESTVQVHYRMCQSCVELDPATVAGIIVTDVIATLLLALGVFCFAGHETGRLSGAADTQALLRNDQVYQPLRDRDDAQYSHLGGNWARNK
T4 sequence (P20963 22-164, chain 4 of 4, further chain): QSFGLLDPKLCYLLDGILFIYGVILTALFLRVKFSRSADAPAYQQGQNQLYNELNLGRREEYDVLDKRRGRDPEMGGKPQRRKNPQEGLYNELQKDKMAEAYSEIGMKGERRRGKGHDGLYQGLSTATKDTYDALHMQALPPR

Kd [1] [nM] | koff [1] [s⁻¹] | kon [1] [M⁻¹ s⁻¹] | Kd [2] [nM] | koff [2] [s⁻¹] | kon [2] [M⁻¹ s⁻¹] | binding result (DLL1 (ACRO, DL1-H52H8)) | EC50 (CD3 on Jurkat cells) [nM] | Binder
0.113 | 2.82e-05 | 249000 | 0.523 | 6.43e-05 | 123000 | no binding | 7.74 | hu110-S107E-hot Ig (bispecific antibody, Format 1 (Hot-Ig, Titin/Obscurin-replaced DLL3 Fab), DLL3 x CD3) light 1: NIVMTQSPKSLAVSLGERATINCKASENVGIFVSWYQQKPGQSPKLLIYGASNRYTGVPDRFSGSGSATDFTLTISSLQAEDVADYYCGQSHSYPLTFGQGTKLEIKGGGGSSGAPRFLTRPKASVVSVGKDATLSCQIVGNPFPQVSWEKDKQPVTAGVRFRLAQDGDLYRLKILDLQLSDSGQYVCRARNAHGEAFACLGLQVDAEA heavy 1: EVQLVQSGAEVKKPGASVKVSCKTSGYTFTDYYMNWVRQAPGQSLEWMGIINPYQGGTSYTQKFKGRVTITVDKSASTAYMELSSLRSEDTAVYYCARHFYDSSYLTYSTMDYWGQGTTVTVSSGGGGSGIPPKIECLPIDISIDEGKVLTVASAFTGEPTPEVTWSTGGRKIHSQEQGRFHIENTDDSTTLTIKDVQKQDGGLYTLTLRNEFGSDSATVNIHIRSIDKTHTCPPCPAPEAAGGPSVFLFPPKPKDTLMISRTPEVTCVVVDVSHEDPEVKFNWYVDGVEVHNAKTKPREEQYNSTYRVVSVLTVLHQDWLNGKEYKCKVSNKALPAPIEKTISKAKGQPREPQVCTLPPSREEMTKNQVSLSCAVKGFYPSDIAVEWESNGQPENNYKTTPPVLDSDGSFFLVSKLTVDKSRWQQGNVFSCSVMHEALHNHYTQKSLSLSPGK heavy 2: not shown light 2: not shown
0.119 | – | – | 0.616 | – | – | no binding | 3.27 | hu110-I2C-hot Ig (bispecific antibody, Format 1 (Hot-Ig, Titin/Obscurin-replaced DLL3 Fab), DLL3 x CD3) light 1: NIVMTQSPKSLAVSLGERATINCKASENVGIFVSWYQQKPGQSPKLLIYGASNRYTGVPDRFSGSGSATDFTLTISSLQAEDVADYYCGQSHSYPLTFGQGTKLEIKGGGGSSGAPRFLTRPKASVVSVGKDATLSCQIVGNPFPQVSWEKDKQPVTAGVRFRLAQDGDLYRLKILDLQLSDSGQYVCRARNAHGEAFACLGLQVDAEA heavy 1: EVQLVQSGAEVKKPGASVKVSCKTSGYTFTDYYMNWVRQAPGQSLEWMGIINPYQGGTSYTQKFKGRVTITVDKSASTAYMELSSLRSEDTAVYYCARHFYDSSYLTYSTMDYWGQGTTVTVSSGGGGSGIPPKIECLPIDISIDEGKVLTVASAFTGEPTPEVTWSTGGRKIHSQEQGRFHIENTDDSTTLTIKDVQKQDGGLYTLTLRNEFGSDSATVNIHIRSIDKTHTCPPCPAPEAAGGPSVFLFPPKPKDTLMISRTPEVTCVVVDVSHEDPEVKFNWYVDGVEVHNAKTKPREEQYNSTYRVVSVLTVLHQDWLNGKEYKCKVSNKALPAPIEKTISKAKGQPREPQVCTLPPSREEMTKNQVSLSCAVKGFYPSDIAVEWESNGQPENNYKTTPPVLDSDGSFFLVSKLTVDKSRWQQGNVFSCSVMHEALHNHYTQKSLSLSPGK heavy 2: not shown light 2: not shown
0.125 | – | – | 0.762 | – | – | no binding | 3.83 | hu110-I2C-Y body (bispecific antibody, Format 2 (Y body: DLL3 Fab-Fc hole + CD3 scFv-Fc knob)) light: NIVMTQSPKSLAVSLGERATINCKASENVGIFVSWYQQKPGQSPKLLIYGASNRYTGVPDRFSGSGSATDFTLTISSLQAEDVADYYCGQSHSYPLTFGQGTKLEIKRTVAAPSVFIFPPSDEQLKSGTASVVCLLNNFYPREAKVQWKVDNALQSGNSQESVTEQDSKDSTYSLSSTLTLSKADYEKHKVYACEVTHQGLSSPVTKSFNRGEC heavy: EVQLVQSGAEVKKPGASVKVSCKTSGYTFTDYYMNWVRQAPGQSLEWMGIINPYQGGTSYTQKFKGRVTITVDKSASTAYMELSSLRSEDTAVYYCARHFYDSSYLTYSTMDYWGQGTTVTVSSASTKGPSVFPLAPSSKSTSGGTAALGCLVKDYFPEPVTVSWNSGALTSGVHTFPAVLQSSGLYSLSSVVTVPSSSLGTQTYICNVNHKPSNTKVDKKVEPKSCDKTHTCPPCPAPEAAGGPSVFLFPPKPKDTLMISRTPEVTCVVVDVSHEDPEVKFNWYVDGVEVHNAKTKPREEQYNSTYRVVSVLTVLHQDWLNGKEYKCKVSNKALPAPIEKTISKAKGQPREPQVCTLPPSREEMTKNQVSLSCAVKGFYPSDIAVEWESNGQPENNYKTTPPVLDSDGSFFLVSKLTVDKSRWQQGNVFSCSVMHEALHNHYTQKSLSLSPGK not shown
